What was measured:
[1] = biological target: HA of H7 pseudovirus (A/chicken/Italy/99) in which the glycosylation site (Asn-38) was removed (influenza A virus H7 A/chicken/Italy/99); test: cell-based or functional assay
[2] = biological target: HA of H7N3 A/Canada/444/04 (influenza A virus H7N3 A/Canada/444/04); test: ELISA on recombinant or purified HA
[3] = biological target: HA of H4N6 A/duck/Czechoslovakia/56 (ELISA antigen) (influenza A virus H4N6 A/duck/Czechoslovakia/56) (UniProt P19696); test: ELISA on recombinant or purified HA
[4] = biological target: HA of H3N2 A/Wyoming/3/03 (influenza A virus H3N2 A/Wyoming/3/03); test: ELISA on recombinant or purified HA
[5] = biological target: HA of H5N1 A/Viet Nam/1/05 (influenza A virus H5N1 A/Viet Nam/1/05); test: ELISA on recombinant or purified HA
[6] = biological target: HA of H3N2 A/New York/55/04 (influenza A virus H3N2 A/New York/55/04); test: ELISA on recombinant or purified HA
[7] = biological target: HA of H13N6 A/gull/Maryland/704/77 (ELISA antigen) (influenza A virus H13N6 A/gull/Maryland/704/77) (UniProt P13103); test: ELISA on recombinant or purified HA
[8] = biological target: HA of H3N2 A/Brisbane/10/07 (influenza A virus H3N2 A/Brisbane/10/07); test: ELISA on recombinant or purified HA
[9] = biological target: HA of H2N2 A/Singapore/1/57 (influenza A virus H2N2 A/Singapore/1/57) (UniProt Q67333); test: ELISA on recombinant or purified HA
[10] = biological target: HA of H1N1 A/Brisbane/59/07 (influenza A virus H1N1 A/Brisbane/59/07); test: ELISA on recombinant or purified HA
[11] = biological target: HA of H6N5 A/shearwater/Australia/1/72 (influenza A virus H6N5 A/shearwater/Australia/1/72); test: ELISA on recombinant or purified HA
[12] = biological target: HA of H10N4 A/mink/Sweded/3900/84 (influenza A virus H10N4 A/mink/Sweded/3900/84); test: ELISA on recombinant or purified HA
[13] = biological target: HA of H5N1 A/Viet Nam/1203/04 (influenza A virus H5N1 A/Viet Nam/1203/04); test: ELISA on recombinant or purified HA
[14] = biological target: HA of H8N4 A/Alberta/357/84 (influenza A virus H8N4 A/Alberta/357/84); test: ELISA on recombinant or purified HA
[15] = biological target: HA of H9 A/HK/1073/99 (influenza A virus H9N2 A/Hong Kong/1073/99); test: ELISA on recombinant or purified HA

Substance	neutralization of H7 pseudovirus, IC50 [1]	EC50 [2]	EC50 [3]	EC50 [4]	EC50 [5]	EC50 [6]	EC50 [7]	EC50 [8]	EC50 [9]	EC50 [10]	EC50 [11]	EC50 [12]	EC50 [13]	EC50 [14]	EC50 [15]
CR6261 (antibody)	> 50 µg/mL														
F10 (antibody)	> 50 µg/mL														
ctr (control antibody of Table 8)		> 20 µg/mL	> 20 µg/mL	> 20 µg/mL	> 20 µg/mL	> 20 µg/mL	> 20 µg/mL	> 20 µg/mL	> 20 µg/mL	> 20 µg/mL	> 20 µg/mL	> 20 µg/mL	> 20 µg/mL	> 20 µg/mL	> 20 µg/mL

Source: patent US20170204167A1
